Ends that are not written are not given here. * marks the point of attachment. Biotin = O=C1N[C@H]2[C@H](CS[C@H]2CCCCC(=O)*)N1

T1: GST-LIM protein PDZ domain fusion protein (Human, UniProt Q96HC4 2-85)
T1 construct: also called Human LIM protein; not shown: glutathione S-transferase encoded by vector pGEX-3X (Pharmacia)
T1 sequence: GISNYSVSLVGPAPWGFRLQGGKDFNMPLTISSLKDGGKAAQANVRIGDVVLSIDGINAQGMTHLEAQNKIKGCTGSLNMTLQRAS

T2: GST-41.8 kD protein (KIAA0751) PDZ domain fusion protein (Mus musculus (Mouse), UniProt Q9EQZ7 682-763)
T2 construct: also called 41 kd; hypoth; not shown: glutathione S-transferase encoded by vector pGEX-3X (Pharmacia)
T2 sequence: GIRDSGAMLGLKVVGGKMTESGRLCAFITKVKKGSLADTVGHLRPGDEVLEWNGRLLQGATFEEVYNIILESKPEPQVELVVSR

T3: KIAA0807 (PDZ domain)-GST fusion protein (human, UniProt Q6P0Q8 1104-1192)
T3 construct: also called K807; KIAA807; not shown: glutathione S-transferase encoded by vector pGEX-3X (Pharmacia)
T3 sequence: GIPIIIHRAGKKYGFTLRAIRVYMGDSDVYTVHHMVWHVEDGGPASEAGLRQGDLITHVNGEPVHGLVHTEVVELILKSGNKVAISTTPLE

B1: CC CKR-4 C-terminal peptide AA44L (peptide)
peptide: Biotin-DTPSSSYTQSTMDHDLHDAL
notes: Only the last four residues are seen in the excerpts
B2: CC CKR-1R C-terminal peptide AA41L (peptide)
peptide: Biotin-LERVSSTSPSTGEHELSAGF
notes: as for B1
B3: CC CKR-2 C-terminal peptide AA42L (peptide)
peptide: Biotin-GKGKSIGRAPEASLQDKEGA
notes: as for B1
B4: PAG C-terminal peptide AA58L, biotinylated (peptide)
peptide: Biotin-KENDYESISDLQQGRDITRL
notes: also called Phosphoprotein Associated with GEMs
B5: CD5 C-terminal peptide AA49L (peptide)
peptide: Biotin-SMQPDNSSDSDYDLHGAQRL
notes: as for B1
B6: CC CKR-3 C-terminal peptide AA43L (peptide)
peptide: Biotin-LERTSSVSPSTAEPELSIVF
notes: as for B1
B7: CDw137 (4-1BB ILA) C-terminal peptide AA21L (peptide)
peptide: Biotin-QEEDGCSCRFPEEEEGGCEL
modifications: cysteine pairing not given here
notes: Marked (S), sticky peptide with high background; also called CDw137 (4-1BB ILA) (S)
B8: CD62E C-terminal peptide AA48L (peptide)
peptide: Biotin-SSSQSLESDGSYQKPSYIL
notes: as for B1
B9: Mannose receptor C-terminal peptide AA31L (peptide)
peptide: Biotin-GTSDMKDLVGNIEQNEHSVI
notes: as for B1
B10: V-gated Ca2+ channel C-terminal peptide AA46L (peptide)
peptide: Biotin-SSGGRARHSYHHPDQDHWC
notes: Marked (S), sticky peptide with high background; also called V-gated Ca2+ channel (S)
B11: CD114 (G-CSFR) C-terminal peptide AA27L (peptide)
peptide: Biotin-LNFPLLQGIRVHGMEALGSF
notes: as for B1

T4 sequence (P31016 other isoform, or with tags, fused parts or gaps): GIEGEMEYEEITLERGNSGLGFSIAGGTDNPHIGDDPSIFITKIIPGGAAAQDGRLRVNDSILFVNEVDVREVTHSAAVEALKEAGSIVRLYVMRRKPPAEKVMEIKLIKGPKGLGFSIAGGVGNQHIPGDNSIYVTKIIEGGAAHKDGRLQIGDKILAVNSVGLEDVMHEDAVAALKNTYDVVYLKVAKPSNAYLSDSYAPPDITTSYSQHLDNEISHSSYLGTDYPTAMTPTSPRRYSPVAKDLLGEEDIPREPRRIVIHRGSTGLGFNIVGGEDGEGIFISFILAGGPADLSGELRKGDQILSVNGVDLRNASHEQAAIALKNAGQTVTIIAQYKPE

The first assay has as its target T4, GST-PSD95 fusion protein (PDZ domains 1-3) (human, UniProt P31016 56-395 (rat entry)).
T4 construct: also called human post-synaptic density protein 95; not shown: glutathione S-transferase encoded by vector pGEX-3X (Pharmacia)
The assay is described as follows: G assay: biotinylated peptide on plate-bound GST-PDZ fusion, streptavidin-HRP, OD 450 nm.
For Biotin-VTSPNKHLGLVTPHKTELV [CD83 C-terminal peptide AA47L, biotinylated], the binding result was “binds”.
Turning to Biotin-KKGTYLTDETHREVKFTSL [CD46 (Form 1) C-terminal peptide AA10L, biotinylated], the binding result is reported as “binds”.

Another assay concerns the target T4, GST-PSD95 fusion protein (PDZ domains …). The assay is described as follows: G assay: biotinylated peptide on plate-bound GST-PDZ fusion, OD 450 nm.
As for Biotin-DLGNMEENKKLEENNHKTEA (also called CD166 (CD6L)) [CD166 C-terminal peptide AA20L, biotinylated], the binding result is on record as “no binding”.
The same measure, in the same setting: the same measure for Biotin-TSGTGHNQTRALRASESGI (also called CD97 (CD55L)) [CD97 C-terminal peptide AA14L, biotinylated]: “no binding”.
On the same count and under the same terms, the entry for Biotin-ARHRVTSYTSSSVNVSSNL [CDW128A (IL8RA) C-terminal peptide AA29.1L, biotinylated] is “no binding”; for Biotin-YSATYSELEDPGEMSPPIDL (also called FceRlb; FcεRβI) [FceRIb C-terminal peptide AA25L, biotinylated] it is “no binding”.
Consider B1, for which the binding result was “no binding”.
On the same count and under the same terms, the same measure for Biotin-PYGTAMEKAQLKPPATSDA (also called CD49E (alpha-4)) [CD49E C-terminal peptide AA11L, biotinylated]: “no binding”; for B2: “no binding”.
On the same count and under the same terms, the same measure for B3: “no binding”.

In a further assay the target is T1, GST-LIM protein PDZ domain fusion …. The assay is described as follows: A/G assays.
Consider Biotin-ISKATPALPTVSISSSAEV (also called AA1L-R) [Clasp-1 C-terminal peptide AA1L, biotinylated], for which the binding result is “no binding”.
Same read-out and setting: the entry for Biotin-ENLAPVTTFGKTNGYIA (also called CD148 (DEP-1)) [CD148 C-terminal peptide AA19L, biotinylated] is “no binding”; for Biotin-DLGNMEENKKLEENNHKTEA (also called CD166 (CD6L)) [CD166 C-terminal peptide AA20L, biotinylated] it is “no binding”.
In the case of Biotin-SPQPDSTDNDDYDDISAA [CD6 C-terminal peptide AA6L, biotinylated], the binding result is reported as “no binding”.
Biotin-TSGTGHNQTRALRASESGI (also called CD97 (CD55L)) [CD97 C-terminal peptide AA14L, biotinylated]: the binding result is reported as “no binding”.
As for Biotin-KDSRPSFVGSSSGHTSTTL (also called CDW128E (IL8RB)) [CDW128B (IL8RB) C-terminal peptide AA29.2L, biotinylated], the binding result was “no binding”.
Still for that read-out and setting: the entry for B4 is “no binding”.
For Biotin-ARHRVTSYTSSSVNVSSNL [CDW128A (IL8RA) C-terminal peptide AA29.1L, biotinylated], the binding result was “no binding”.
Same read-out and setting: the entry for Biotin-AWDDSARAAGGQGLHVTAL [LPAP C-terminal peptide AA30L, biotinylated] is “no binding”; for B5 it is “no binding”; for Biotin-YSATYSELEDPGEMSPPIDL (also called FceRlb; FcεRβI) [FceRIb C-terminal peptide AA25L, biotinylated] it is “no binding”.
For the molecule Biotin-VTSPNKHLGLVTPHKTELV [CD83 C-terminal peptide AA47L, biotinylated], the binding result was “no binding”.
Still for that read-out and setting: the entry for B6 is “no binding”.
Same read-out and setting: the entry for Biotin-QATSENGHSARQHVVADTEL [CD34 C-terminal peptide AA7L, biotinylated] is “no binding”; for B7 it is “no binding”; for Biotin-CAISGTSSDRGYGSPRYAEV (also called AA3L-V) [Clasp-4 C-terminal peptide AA3L, biotinylated] it is “no binding”.
On to B8, for which the binding result is given as “no binding”.
Take B1: the binding result is “no binding”.
Still for that read-out and setting: the entry for B9 is “no binding”; for B10 it is “no binding”.
For the molecule B11, the binding result is “no binding”.
Consider Biotin-SSKSKSSEESQTFFGLYKL (not fully specified, also called FasLigand; Fas ligand) [FasL C-terminal peptide AA23L-M, biotinylated], for which the binding result was “no binding”.
On to Biotin-KKGTYLTDETHREVKFTSL [CD46 (Form 1) C-terminal peptide AA10L, biotinylated], for which the binding result was “no binding”.
Still for that read-out and setting: the same measure for Biotin-QFMTADETRNLQNVDMKIGV (also called CD44 (long form)) [CD44 C-terminal peptide AA9L, biotinylated]: “no binding”; for Biotin-PYGTAMEKAQLKPPATSDA (also called CD49E (alpha-4)) [CD49E C-terminal peptide AA11L, biotinylated]: “no binding”; for B2: “no binding”.
Regarding B3, the binding result is listed as “no binding”.
As to Biotin-HKAEIHAQPSDKERLTSDA (also called CD49F (Aform, alpha6)) [CD49F C-terminal peptide AA12L, biotinylated], the binding result is recorded as “no binding”.

For the next assay, the target named is T4, GST-PSD95 fusion protein (PDZ domains …). As to the kind of experiment: A/G assays.
As for Biotin-ENLAPVTTFGKTNGYIA (also called CD148 (DEP-1)) [CD148 C-terminal peptide AA19L, biotinylated], the binding result is reported as “no binding”.
Same read-out and setting: the entry for Biotin-SPQPDSTDNDDYDDISAA [CD6 C-terminal peptide AA6L, biotinylated] is “no binding”; for B4 it is “no binding”.
Still for that read-out and setting: the same measure for Biotin-AWDDSARAAGGQGLHVTAL [LPAP C-terminal peptide AA30L, biotinylated]: “no binding”; for B5: “no binding”; for B6: “no binding”.
The same measure, in the same setting: the entry for B7 is “no binding”; for B8 it is “no binding”; for B9 it is “no binding”.
For B10, the binding result is given as “no binding”.
The same measure, in the same setting: the entry for B11 is “no binding”; for Biotin-SSKSKSSEESQTFFGLYKL (not fully specified, also called FasLigand; Fas ligand) [FasL C-terminal peptide AA23L-M, biotinylated] it is “no binding”; for Biotin-QFMTADETRNLQNVDMKIGV (also called CD44 (long form)) [CD44 C-terminal peptide AA9L, biotinylated] it is “no binding”.
In the case of Biotin-HKAEIHAQPSDKERLTSDA (also called CD49F (Aform, alpha6)) [CD49F C-terminal peptide AA12L, biotinylated], the binding result is on record as “no binding”.

The next assay has as its target T2, GST-41.8 kD protein (KIAA0751) PDZ …. As to the kind of experiment: A/G assays.
For the molecule Biotin-ISKATPALPTVSISSSAEV (also called AA1L-R) [Clasp-1 C-terminal peptide AA1L, biotinylated], the binding result is reported as “no binding”.
The same measure, in the same setting: the same measure for Biotin-ENLAPVTTFGKTNGYIA (also called CD148 (DEP-1)) [CD148 C-terminal peptide AA19L, biotinylated]: “no binding”; for Biotin-DLGNMEENKKLEENNHKTEA (also called CD166 (CD6L)) [CD166 C-terminal peptide AA20L, biotinylated]: “no binding”; for B4: “no binding”.
Same read-out and setting: the same measure for Biotin-AWDDSARAAGGQGLHVTAL [LPAP C-terminal peptide AA30L, biotinylated]: “no binding”; for B5: “no binding”.
On the same count and under the same terms, the entry for B6 is “no binding”; for Biotin-QATSENGHSARQHVVADTEL [CD34 C-terminal peptide AA7L, biotinylated] it is “no binding”; for B7 it is “no binding”.
As to B8, the binding result was “no binding”.
In the case of B9, the binding result is given as “no binding”.
Same read-out and setting: the entry for B10 is “no binding”; for B11 it is “no binding”; for Biotin-SSKSKSSEESQTFFGLYKL (not fully specified, also called FasLigand; Fas ligand) [FasL C-terminal peptide AA23L-M, biotinylated] it is “no binding”.
Same read-out and setting: the entry for Biotin-KKGTYLTDETHREVKFTSL [CD46 (Form 1) C-terminal peptide AA10L, biotinylated] is “no binding”; for Biotin-QFMTADETRNLQNVDMKIGV (also called CD44 (long form)) [CD44 C-terminal peptide AA9L, biotinylated] it is “no binding”.

For a further assay the target is unchanged. The assay is described as follows: G assay: biotinylated peptide on plate-bound GST-PDZ fusion, OD 450 nm; no GST-alone bar on the sheet.
On to Biotin-ARHRVTSYTSSSVNVSSNL [CDW128A (IL8RA) C-terminal peptide AA29.1L, biotinylated], for which the binding result is reported as “no binding”.
The same measure, in the same setting: the entry for Biotin-YSATYSELEDPGEMSPPIDL (also called FceRlb; FcεRβI) [FceRIb C-terminal peptide AA25L, biotinylated] is “no binding”; for Biotin-VTSPNKHLGLVTPHKTELV [CD83 C-terminal peptide AA47L, biotinylated] it is “no binding”.
Same read-out and setting: the entry for B1 is “no binding”; for B2 it is “no binding”; for B3 it is “no binding”.

The target in the next assay is T3, KIAA0807 (PDZ domain)-GST fusion protein. The assay is described as follows: A/G plate assays, Table 2 matrix.
As to Biotin-KDSRPSFVGSSSGHTSTTL (also called CDW128E (IL8RB)) [CDW128B (IL8RB) C-terminal peptide AA29.2L, biotinylated], the binding result is given as “binds”.
On the same count and under the same terms, the same measure for B4: “binds”.
With Biotin-AWDDSARAAGGQGLHVTAL [LPAP C-terminal peptide AA30L, biotinylated], the binding result is “binds”.
On the same count and under the same terms, the same measure for Biotin-KKGTYLTDETHREVKFTSL [CD46 (Form 1) C-terminal peptide AA10L, biotinylated]: “binds”.

The next assay deals with T4, GST-PSD95 fusion protein (PDZ domains …). As to the kind of experiment: A/G plate assays, Table 2 matrix.
Turning to Biotin-KDSRPSFVGSSSGHTSTTL (also called CDW128E (IL8RB)) [CDW128B (IL8RB) C-terminal peptide AA29.2L, biotinylated], the binding result is “binds”.

Another assay concerns the target T2, GST-41.8 kD protein (KIAA0751) PDZ …. The assay is described as follows: A/G plate assays, Table 2 matrix.
For Biotin-SPQPDSTDNDDYDDISAA [CD6 C-terminal peptide AA6L, biotinylated], the binding result is “binds”.
Still for that read-out and setting: the same measure for Biotin-TSGTGHNQTRALRASESGI (also called CD97 (CD55L)) [CD97 C-terminal peptide AA14L, biotinylated]: “binds”; for Biotin-KDSRPSFVGSSSGHTSTTL (also called CDW128E (IL8RB)) [CDW128B (IL8RB) C-terminal peptide AA29.2L, biotinylated]: “binds”.
Still for that read-out and setting: the same measure for Biotin-HKAEIHAQPSDKERLTSDA (also called CD49F (Aform, alpha6)) [CD49F C-terminal peptide AA12L, biotinylated]: “binds”.

The target is the same in the next assay. As to the kind of experiment: G assay: biotinylated peptide on plate-bound GST-PDZ fusion, streptavidin-HRP, OD 450 nm.
As for Biotin-PYGTAMEKAQLKPPATSDA (also called CD49E (alpha-4)) [CD49E C-terminal peptide AA11L, biotinylated], the binding result is “binds”.

The values above are taken from patent US20050037969A1 (ARBOR VITA, published 2005).
